Measurements reported in paper PMC7299343, “Two forms of Opa1 cooperate to complete fusion of the mitochondrial inner-membrane” (eLife, 2020).

B3: long form of human Opa1 (l-Opa1), wild type (natural protein, UniProt O60313-1 88-960, looked up)
chain: FWPARLATRLLKLRYLILGSAVGGGYTAKKTFDQWKDMIPDLSEYKWIVPDIVWEIDEYIDFEKIRKALPSSEDLVKLAPDFDKIVESLSLLKDFFTSGSPEETAFRATDRGSESDKHFRKVSDKEKIDQLQEELLHTQLKYQRILERLEKENKELRKLVLQKDDKGIHHRKLKKSLIDMYSEVLDVLSDYDASYNTQDHLPRVVVVGDQSAGKTSVLEMIAQARIFPRGSGEMMTRSPVKVTLSEGPHHVALFKDSSREFDLTKEEDLAALRHEIELRMRKNVKEGCTVSPETISLNVKGPGLQRMVLVDLPGVINTVTSGMAPDTKETIFSISKAYMQNPNAIILCIQDGSVDAERSIVTDLVSQMDPHGRRTIFVLTKVDLAEKNVASPSRIQQIIEGKLFPMKALGYFAVVTGKGNSSESIEAIREYEEEFFQNSKLLKTSMLKAHQVTTRNLSLAVSDCFWKMVRESVEQQADSFKATRFNLETEWKNNYPRLRELDRNELFEKAKNEILDEVISLSQVTPKHWEEILQQSLWERVSTHVIENIYLPAAQTMNSGTFNTTVDIKLKQWTDKQLPNKAVEVAWETLQEEFSRFMTEPKGKEHDDIFDKLKEAVKEESIKRHKWNDFAEDSLRVIQHNALEDRSISDKQQWDAAIYFMEEALQARLKDTENAIENMVGPDWKKRWLYWKNRTQEQCVHNETKNELEKMLKCNEEHPAYLASDEITTVRKNLESRGVEVDPSLIKDTWHQVYRRHFLKTALNHCNLCRRGFYYYQRHFVDSELECNDVVLFWRIQRMLAITANTLRQQLTNTEVRRLEKNVKEVLEDFAEDGEKKIKLLTGKRVQLAEDLKKVREIQEKLDAFIEALHQEK
notes: OPA1, human, long form, residues 88-960 of UniProt O60313-1 (isoform 1), codon optimized for Pichia pastoris; Construct: Twin-Strep-tag, HRV 3C site, (G4S)3 linker at the N-terminus; (G4S)3 linker, TEV site, deca-histidine tag at the C-terminus; also called WT l-Opa1; TwinStrep-lOPA1-H10

Columns and labels:
[1] = target: the molecule itself; assay: native gel or EMSA; Blue native PAGE (BN-PAGE), 3-12% Bis-Tris gradient gels, sample buffer with 0.25% Coomassie G-250 and 1 mM DDM, cathode buffer with 1 mM DDM, 4 °C; mixtures of l-Opa1 and s-Opa1 incubated on ice for 10 min before loading
[2] = target: B3; assay: as above; details: both partners purified

B1: short form of human Opa1 (s-Opa1, S1 form), wild type (natural protein, UniProt O60313-1 195-960, looked up)
chain: ATDRGSESDKHFRKVSDKEKIDQLQEELLHTQLKYQRILERLEKENKELRKLVLQKDDKGIHHRKLKKSLIDMYSEVLDVLSDYDASYNTQDHLPRVVVVGDQSAGKTSVLEMIAQARIFPRGSGEMMTRSPVKVTLSEGPHHVALFKDSSREFDLTKEEDLAALRHEIELRMRKNVKEGCTVSPETISLNVKGPGLQRMVLVDLPGVINTVTSGMAPDTKETIFSISKAYMQNPNAIILCIQDGSVDAERSIVTDLVSQMDPHGRRTIFVLTKVDLAEKNVASPSRIQQIIEGKLFPMKALGYFAVVTGKGNSSESIEAIREYEEEFFQNSKLLKTSMLKAHQVTTRNLSLAVSDCFWKMVRESVEQQADSFKATRFNLETEWKNNYPRLRELDRNELFEKAKNEILDEVISLSQVTPKHWEEILQQSLWERVSTHVIENIYLPAAQTMNSGTFNTTVDIKLKQWTDKQLPNKAVEVAWETLQEEFSRFMTEPKGKEHDDIFDKLKEAVKEESIKRHKWNDFAEDSLRVIQHNALEDRSISDKQQWDAAIYFMEEALQARLKDTENAIENMVGPDWKKRWLYWKNRTQEQCVHNETKNELEKMLKCNEEHPAYLASDEITTVRKNLESRGVEVDPSLIKDTWHQVYRRHFLKTALNHCNLCRRGFYYYQRHFVDSELECNDVVLFWRIQRMLAITANTLRQQLTNTEVRRLEKNVKEVLEDFAEDGEKKIKLLTGKRVQLAEDLKKVREIQEKLDAFIEALHQEK
notes: OPA1, human, short form corresponding to the S1 form that results from Oma1 cleavage, residues 195-960 of UniProt O60313-1, codon optimized for Pichia pastoris; Construct: Twin-Strep-tag, HRV 3C site, (G4S)3 linker at the N-terminus; (G4S)3 linker, TEV site, deca-histidine tag at the C-terminus; His tag said to be cleaved with TEV in all the functional assays; also called WT s-Opa1; …
- binding result [1]: binds

B2: G300E mutant of s-Opa1 (s1) (natural protein, human, UniProt O60313-1 195-960, looked up)
chain: ATDRGSESDKHFRKVSDKEKIDQLQEELLHTQLKYQRILERLEKENKELRKLVLQKDDKGIHHRKLKKSLIDMYSEVLDVLSDYDASYNTQDHLPRVVVVGDQSAEKTSVLEMIAQARIFPRGSGEMMTRSPVKVTLSEGPHHVALFKDSSREFDLTKEEDLAALRHEIELRMRKNVKEGCTVSPETISLNVKGPGLQRMVLVDLPGVINTVTSGMAPDTKETIFSISKAYMQNPNAIILCIQDGSVDAERSIVTDLVSQMDPHGRRTIFVLTKVDLAEKNVASPSRIQQIIEGKLFPMKALGYFAVVTGKGNSSESIEAIREYEEEFFQNSKLLKTSMLKAHQVTTRNLSLAVSDCFWKMVRESVEQQADSFKATRFNLETEWKNNYPRLRELDRNELFEKAKNEILDEVISLSQVTPKHWEEILQQSLWERVSTHVIENIYLPAAQTMNSGTFNTTVDIKLKQWTDKQLPNKAVEVAWETLQEEFSRFMTEPKGKEHDDIFDKLKEAVKEESIKRHKWNDFAEDSLRVIQHNALEDRSISDKQQWDAAIYFMEEALQARLKDTENAIENMVGPDWKKRWLYWKNRTQEQCVHNETKNELEKMLKCNEEHPAYLASDEITTVRKNLESRGVEVDPSLIKDTWHQVYRRHFLKTALNHCNLCRRGFYYYQRHFVDSELECNDVVLFWRIQRMLAITANTLRQQLTNTEVRRLEKNVKEVLEDFAEDGEKKIKLLTGKRVQLAEDLKKVREIQEKLDAFIEALHQEK
notes: OPA1, human, short form (S1), residues 195-960 of UniProt O60313-1, with G300E; same tags and linkers as m2; also called G300E s-Opa1; sOPA1 (G300E); source: Pichia pastoris SMD1163, purified
- binding result [2]: binds

Binder: B3
- binding result [1]: binds
